Starred links: 1 amine or outer side, 2 acyl side, 3 side chain; linkers in the order of their positions; H or OH if unused. Positions of bridges follow the written chain, without caps; N, C: chain ends. Non-standard residues stand in square brackets, D forms with d. dPhe(4-NHAc) = 4-acetamido-D-phenylalanine, CC(=O)Nc1ccc(C[C@@H](N[*:1])C(=O)[*:2])cc1; dPhe(4-tBu) = CC(C)(C)c1ccc(C[C@@H](N)C(=O)O)cc1; dPhe(4-Br) = N[C@H](Cc1ccc(Br)cc1)C(=O)O; dPhe(4-I) = N[C@H](Cc1ccc(I)cc1)C(=O)O; d(αMeF) = C[C@@](N)(Cc1ccccc1)C(=O)O; NMeR = CN[C@@H](CCCNC(=N)N)C(=O)O; Nle = CCCC[C@H](N)C(=O)O; R2 = not defined here
B1: CTX-1220 (peptide)
peptide: Ac-RC[dA]R[dPhe(4-Br)]R[dW]CRF-NH2
modifications: disulfide 2-8
SMILES: CC(=O)N[C@@H](CCCNC(=N)N)C(=O)N[C@H]1CSSC[C@@H](C(=O)N[C@@H](CCCNC(=N)N)C(=O)N[C@@H](Cc2ccccc2)C(N)=O)NC(=O)[C@@H](Cc2c[nH]c3ccccc23)NC(=O)[C@H](CCCNC(=N)N)NC(=O)[C@@H](Cc2ccc(Br)cc2)NC(=O)[C@H](CCCNC(=N)N)NC(=O)[C@@H](C)NC1=O
B2: CTX-1249 (peptide)
peptide: Ac-RC[dA]P[dPhe(4-Br)]R[dW]C-NH2
modifications: disulfide 2-8
SMILES: CC(=O)N[C@@H](CCCNC(=N)N)C(=O)N[C@H]1CSSC[C@@H](C(N)=O)NC(=O)[C@@H](Cc2c[nH]c3ccccc23)NC(=O)[C@H](CCCNC(=N)N)NC(=O)[C@@H](Cc2ccc(Br)cc2)NC(=O)[C@@H]2CCCN2C(=O)[C@@H](C)NC1=O
B3: CTX-1242 (peptide)
peptide: Ac-RC[dA]R[dPhe(4-tBu)]R[dW]C-NH2
modifications: disulfide 2-8
SMILES: CC(=O)N[C@@H](CCCNC(=N)N)C(=O)N[C@H]1CSSC[C@@H](C(N)=O)NC(=O)[C@@H](Cc2c[nH]c3ccccc23)NC(=O)[C@H](CCCNC(=N)N)NC(=O)[C@@H](Cc2ccc(C(C)(C)C)cc2)NC(=O)[C@H](CCCNC(=N)N)NC(=O)[C@@H](C)NC1=O
B4: CTX-1233 (peptide)
peptide: Ac-R[Nle]CH[dPhe(4-I)]R[dW]C-NH2
modifications: disulfide 3-8
SMILES: CCCC[C@H](NC(=O)[C@H](CCCNC(=N)N)NC(C)=O)C(=O)N[C@H]1CSSC[C@@H](C(N)=O)NC(=O)[C@@H](Cc2c[nH]c3ccccc23)NC(=O)[C@H](CCCNC(=N)N)NC(=O)[C@@H](Cc2ccc(I)cc2)NC(=O)[C@H](Cc2c[nH]cn2)NC1=O
B5: CTX-1237 (peptide)
peptide: Ac-RC[dA]R[dY]R[dW]C-NH2
modifications: disulfide 2-8
SMILES: CC(=O)N[C@@H](CCCNC(=N)N)C(=O)N[C@H]1CSSC[C@@H](C(N)=O)NC(=O)[C@@H](Cc2c[nH]c3ccccc23)NC(=O)[C@H](CCCNC(=N)N)NC(=O)[C@@H](Cc2ccc(O)cc2)NC(=O)[C@H](CCCNC(=N)N)NC(=O)[C@@H](C)NC1=O
B6: CTX-1222 (peptide)
peptide: Ac-RC[dA]R[dPhe(4-Br)]R[dW]CR[dF]-NH2
modifications: disulfide 2-8
SMILES: CC(=O)N[C@@H](CCCNC(=N)N)C(=O)N[C@H]1CSSC[C@@H](C(=O)N[C@@H](CCCNC(=N)N)C(=O)N[C@H](Cc2ccccc2)C(N)=O)NC(=O)[C@@H](Cc2c[nH]c3ccccc23)NC(=O)[C@H](CCCNC(=N)N)NC(=O)[C@@H](Cc2ccc(Br)cc2)NC(=O)[C@H](CCCNC(=N)N)NC(=O)[C@@H](C)NC1=O
B7: CTX-1226 (peptide)
peptide: R2-RC[dA]R[dPhe(4-Br)]R[dW]C-NH2
modifications: disulfide 2-8; reading uncertain; also: printed as N-term. Mod. R2; Arg-cyclo(Cys-D-Ala-Arg-D-Phe(4-Br)-Arg-D-Trp-Cys)-NH2
B8: CTX-1240 (peptide)
peptide: Ac-RC[dA]R[d(αMeF)]R[dW]C-NH2
modifications: disulfide 2-8
SMILES: CC(=O)N[C@@H](CCCNC(=N)N)C(=O)N[C@H]1CSSC[C@@H](C(N)=O)NC(=O)[C@@H](Cc2c[nH]c3ccccc23)NC(=O)[C@H](CCCNC(=N)N)NC(=O)[C@@](C)(Cc2ccccc2)NC(=O)[C@H](CCCNC(=N)N)NC(=O)[C@@H](C)NC1=O
B9: CTX-1248 (peptide)
peptide: Ac-RC[dA][NMeR][dPhe(4-Br)]R[dW]C-NH2
modifications: disulfide 2-8
SMILES: CC(=O)N[C@@H](CCCNC(=N)N)C(=O)N[C@H]1CSSC[C@@H](C(N)=O)NC(=O)[C@@H](Cc2c[nH]c3ccccc23)NC(=O)[C@H](CCCNC(=N)N)NC(=O)[C@@H](Cc2ccc(Br)cc2)NC(=O)[C@H](CCCNC(=N)N)N(C)C(=O)[C@@H](C)NC1=O
B10: CTX-1231 (peptide)
peptide: Ac-R[Nle]CH[dPhe(4-Br)]R[dW]C-NH2
modifications: disulfide 3-8
SMILES: CCCC[C@H](NC(=O)[C@H](CCCNC(=N)N)NC(C)=O)C(=O)N[C@H]1CSSC[C@@H](C(N)=O)NC(=O)[C@@H](Cc2c[nH]c3ccccc23)NC(=O)[C@H](CCCNC(=N)N)NC(=O)[C@@H](Cc2ccc(Br)cc2)NC(=O)[C@H](Cc2c[nH]cn2)NC1=O
B11: CTX-1219 (peptide)
peptide: Ac-RC[dA]R[dPhe(4-Br)]R[dW]CRFG-OH
modifications: disulfide 2-8
SMILES: CC(=O)N[C@@H](CCCNC(=N)N)C(=O)N[C@H]1CSSC[C@@H](C(=O)N[C@@H](CCCNC(=N)N)C(=O)N[C@@H](Cc2ccccc2)C(=O)NCC(=O)O)NC(=O)[C@@H](Cc2c[nH]c3ccccc23)NC(=O)[C@H](CCCNC(=N)N)NC(=O)[C@@H](Cc2ccc(Br)cc2)NC(=O)[C@H](CCCNC(=N)N)NC(=O)[C@@H](C)NC1=O

The binders below were run against T1, human MC4R receptor (human, UniProt P32245 1-332) (assay: cell-based or functional assay).
T1 sequence (P32245 whole entry): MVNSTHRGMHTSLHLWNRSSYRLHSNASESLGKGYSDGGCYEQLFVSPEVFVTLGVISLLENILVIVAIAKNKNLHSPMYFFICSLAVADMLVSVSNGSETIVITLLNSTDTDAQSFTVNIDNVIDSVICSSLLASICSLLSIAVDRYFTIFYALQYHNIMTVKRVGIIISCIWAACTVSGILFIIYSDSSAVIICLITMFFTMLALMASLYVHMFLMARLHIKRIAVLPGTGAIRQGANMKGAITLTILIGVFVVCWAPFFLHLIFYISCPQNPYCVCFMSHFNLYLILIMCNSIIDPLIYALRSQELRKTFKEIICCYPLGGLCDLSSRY

Going from Ac-RC[dA]R[dPhe(4-NHAc)]R[dW]C-NH2 (disulfide 2-8) [CTX-1245] to B1, the “% max activation” value rises from 34% to 76%.

Compared with B2, B3 is lower in “% max activation” value: 22% for the first, 5.8% for the second.

Going from B4 to B5, the “% max activation” value rises from 16% to 61%.

Going from B6 to Ac-RC[dA]R[dPhe(4-Br)][dR][dW]C-NH2 (disulfide 2-8) [CTX-1252], the “% max activation” value falls from 79% to 4.4%.

Going from B7 to Ac-RC[dA]RF[NMeR][dW]C-NH2 (disulfide 2-8; not fully specified (residue 5)) [CTX-1251], the “% max activation” value falls from 71% to 31%.

First: B8
Second: B9
The “% max activation” value of the first is higher: 81% for the first, 47% for the second.

Compared with B10, B11 is higher in “% max activation” value: 64% for the first, 76% for the second.

For Ac-RC[dA][dR][dPhe(4-Br)]R[dW]C-NH2 (disulfide 2-8) [CTX-1250], the “% max activation” value was 8.7%.

Compared with Ac-RC[dA]R[dPhe(4-NHAc)]R[dW]C-NH2 (disulfide 2-8) [CTX-1245], B1 is 2400-fold lower in “cAMP EC50” value: 4450 nM for the first, 1.87 nM for the second.

First: B2
Second: B3
The “cAMP EC50” value of the first is 1.9-fold lower: 14 nM for the first, 26 nM for the second.

First: B4
Second: B5
The “cAMP EC50” value of the first is 450-fold lower: 2.2 nM for the first, 998 nM for the second.

Compared with B6, Ac-RC[dA]R[dPhe(4-Br)][dR][dW]C-NH2 (disulfide 2-8) [CTX-1252] is 30-fold higher in “cAMP EC50” value: 30 nM for the first, 885 nM for the second.

Compared with B7, Ac-RC[dA]RF[NMeR][dW]C-NH2 (disulfide 2-8; not fully specified (residue 5)) [CTX-1251] is 6.6-fold higher in “cAMP EC50” value: 3.8 nM for the first, 25 nM for the second.

First: B8
Second: B9
The “cAMP EC50” value of the first is 38-fold higher: 76 nM for the first, 2 nM for the second.

B10 and B11 are the same in “cAMP EC50” value: 2.3 nM for the first, 2.3 nM for the second.

In the case of Ac-RC[dA][dR][dPhe(4-Br)]R[dW]C-NH2 (disulfide 2-8) [CTX-1250], the “cAMP EC50” value is reported as 185 nM.

What follows are binders tested against human MC3R (human, UniProt P41968 1-323) (assay: cell-based or functional assay).
Sequence of human MC3R (P41968 whole entry): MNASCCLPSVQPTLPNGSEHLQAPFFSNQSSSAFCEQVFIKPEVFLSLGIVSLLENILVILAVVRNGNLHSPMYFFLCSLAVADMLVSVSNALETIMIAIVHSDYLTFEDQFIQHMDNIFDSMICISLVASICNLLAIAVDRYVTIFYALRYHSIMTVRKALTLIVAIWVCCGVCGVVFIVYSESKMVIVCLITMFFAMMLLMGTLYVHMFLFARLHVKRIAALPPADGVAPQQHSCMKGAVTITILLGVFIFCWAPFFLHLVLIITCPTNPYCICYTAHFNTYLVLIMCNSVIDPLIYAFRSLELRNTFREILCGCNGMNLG

First: Ac-RC[dA]R[dPhe(4-NHAc)]R[dW]C-NH2 (disulfide 2-8) [CTX-1245]
Second: B1
The “% max activation” value of the first is lower: 6.3% for the first, 21% for the second.

Compared with B2, B3 is higher in “% max activation” value: 1.9% for the first, 2.8% for the second.

Compared with B4, B5 is lower in “% max activation” value: 22% for the first, 19% for the second.

First: B6
Second: Ac-RC[dA]R[dPhe(4-Br)][dR][dW]C-NH2 (disulfide 2-8) [CTX-1252]
The “% max activation” value of the first is higher: 38% for the first, 1.1% for the second.

Going from B7 to Ac-RC[dA]RF[NMeR][dW]C-NH2 (disulfide 2-8; not fully specified (residue 5)) [CTX-1251], the “% max activation” value rises from 29% to 30%.

Going from B8 to B9, the “% max activation” value falls from 27% to 18%.

Going from B10 to B11, the “% max activation” value falls from 59% to 20%.

In the case of Ac-RC[dA][dR][dPhe(4-Br)]R[dW]C-NH2 (disulfide 2-8) [CTX-1250], the “% max activation” value is reported as 10%.

First: Ac-RC[dA]R[dPhe(4-NHAc)]R[dW]C-NH2 (disulfide 2-8) [CTX-1245]
Second: B1
The “cAMP EC50” value of the first is 10-fold higher: 73 nM for the first, 7.2 nM for the second.

Going from B2 to B3, the “cAMP EC50” value falls from 6.1 nM to 2.2 nM (2.8-fold).

First: B4
Second: B5
The “cAMP EC50” value of the first is 19-fold lower: 4.1 nM for the first, 79 nM for the second.

First: B6
Second: Ac-RC[dA]R[dPhe(4-Br)][dR][dW]C-NH2 (disulfide 2-8) [CTX-1252]
The “cAMP EC50” value of the first is 5.8-fold lower: 9.8 nM for the first, 57 nM for the second.

First: B7
Second: Ac-RC[dA]RF[NMeR][dW]C-NH2 (disulfide 2-8; not fully specified (residue 5)) [CTX-1251]
The “cAMP EC50” value of the first is 7.8-fold lower: 12 nM for the first, 93 nM for the second.

Going from B8 to B9, the “cAMP EC50” value falls from 31 nM to 2.8 nM (11-fold).

Going from B10 to B11, the “cAMP EC50” value falls from 7 nM to 4.5 nM (1.6-fold).

Ac-RC[dA][dR][dPhe(4-Br)]R[dW]C-NH2 (disulfide 2-8) [CTX-1250] was tested, and the “cAMP EC50” value was 2090 nM.

Molecular target: T1, human MC4R receptor
Assay: cell-based or functional assay
Remark: another data set of the same source

First: Ac-RC[dA]R[dPhe(4-NHAc)]R[dW]C-NH2 (disulfide 2-8) [CTX-1245]
Second: B1
The “MC4R selectivity vs MC1R” value of the first is lower: 0.08 for the first, 1.53 for the second.

Compared with B2, B3 is lower in “MC4R selectivity vs MC1R” value: 5.08 for the first, 0.64 for the second.

First: B4
Second: B5
The “MC4R selectivity vs MC1R” value of the first is higher: 0.26 for the first, 0.24 for the second.

Going from B6 to Ac-RC[dA]R[dPhe(4-Br)][dR][dW]C-NH2 (disulfide 2-8) [CTX-1252], the “MC4R selectivity vs MC1R” value falls from 0.1 to 0.04.

First: B7
Second: Ac-RC[dA]RF[NMeR][dW]C-NH2 (disulfide 2-8; not fully specified (residue 5)) [CTX-1251]
The “MC4R selectivity vs MC1R” value of the first is higher: 1.33 for the first, 0.11 for the second.

Compared with B8, B9 is higher in “MC4R selectivity vs MC1R” value: 0.46 for the first, 1.31 for the second.

Going from B10 to B11, the “MC4R selectivity vs MC1R” value rises from 0.19 to 1.

For Ac-RC[dA][dR][dPhe(4-Br)]R[dW]C-NH2 (disulfide 2-8) [CTX-1250], the “MC4R selectivity vs MC1R” value was 1.06.

Compared with Ac-RC[dA]R[dPhe(4-NHAc)]R[dW]C-NH2 (disulfide 2-8) [CTX-1245], B1 is higher in “MC4R selectivity vs MC3R” value: 0.02 for the first, 3.82 for the second.

Compared with B2, B3 is lower in “MC4R selectivity vs MC3R” value: 0.45 for the first, 0.08 for the second.

Going from B4 to B5, the “MC4R selectivity vs MC3R” value falls from 1.88 to 0.08.

Going from B6 to Ac-RC[dA]R[dPhe(4-Br)][dR][dW]C-NH2 (disulfide 2-8) [CTX-1252], the “MC4R selectivity vs MC3R” value falls from 0.33 to 0.06.

Going from B7 to Ac-RC[dA]RF[NMeR][dW]C-NH2 (disulfide 2-8; not fully specified (residue 5)) [CTX-1251], the “MC4R selectivity vs MC3R” value rises from 3.21 to 3.73.

Going from B8 to B9, the “MC4R selectivity vs MC3R” value rises from 0.41 to 1.36.

Compared with B10, B11 is lower in “MC4R selectivity vs MC3R” value: 3.04 for the first, 1.99 for the second.

With Ac-RC[dA][dR][dPhe(4-Br)]R[dW]C-NH2 (disulfide 2-8) [CTX-1250] the “MC4R selectivity vs MC3R” value was 11.
